This data set in a line: protease stability score; higher = more stable; yeast display proteolysis, trypsin and chymotrypsin.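 Also: relative to predicted unfolded state with 0 unfolded-like and 1 meaning tenfold more protease.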
In the case of “SEQSKHVKDMFDTWVHSERTGDWRVAKELVDPNARIDINGREFHGMEEAERLAHEIFTRIDHKELRIDHVHFINGVFKVEGTVIFRQGDKQFTIETRIHLFVINGRLKELKVEFI”, the protease stability score amounted to 1.15.

Take “SEEDKWIKDMTHLFLHWFLTGDEEIFNHFADPNVRVQYGDKWRVGRERVSEFNEFVLRELRFKEIRLKNLSTQGEKATSIVRVDVQFDGKEIDIEIRIHIVVVDGVLKQVEIRET”: the protease stability score stood at 0.795.

The sequence “SEENEAAKLVIEKLNHSWKTGDWRLSEKLMDPDVRVHINGQDLHGREQARKFLEEIRLHMRDVKVKEIRIVDGRLETHGHVHIELIFDGRVFRIERDVESVVLKFNGKWTLESLEVI” displayed a protease stability score of 1.21.

In the case of “EEEEKHAKHVAKEFLRLLFTGNEHRLKEYLDPNVRLDVNGQEFHGWEEIVKWLREIRFEDSRLHRIRVVGDKIDIDGELDGVINGRRVDRRSIIILFVVDGRYTEVTYRNI”, the protease stability score came out at 1.26.

Turning to “DEEDEELHRILQLLKEYWKTGDWERFHELADPNPLLIINGVENHGMDSVKHAWEEFRRRIDHNEKIEDKDSKRQGEFIVLHVKVDGHVNGRRTETDMHIILLIVNGKVKDVEIRIR”, the protease stability score was 1.38.

Consider “REEEKKLEDIVKKLLEAWETGDEDFLIEMADPDTRVEFEAENHHEHRVGWENMIHWTHEVHRHLGVKHLMIDSSTIIGEKVHIDGTMNINGREVKIRIIIEIVDGRVKKIKIIVH”, for which the protease stability score amounted to 1.71.

Consider “HEEEKIIEEASKRWLELMQTGDEDKVLHYLDPEYRSEWDGVEIHGRETFRKWLLDLLRKFKGLRFEFRDVRDVGDKVRIIGTVTYDGKVRDTRIDVVIVNGRYKSMEIHFN”, for which the protease stability score was determined as 1.69.

“DEDKEDTDKMIEILIRVARTGDEDSLLHMLDPNVRIVVNGREEHGRDVAHRFLKEIRIHDMEVKRVEIIGNKVKIDGRVDGDFNGVRHKTETEIITEKINGKWVIRSIIFR” registered a protease stability score of 2.1.

For the sequence “HDDQKESHEWAKLFEDWLQTGDEESILKQLDPHVRIEIGDKRNHGREELHRYEHEFWTKFGIDHIHIDDIRVQGEKVHLETTVIVNGRKFQQIIIVVFIDGVMQRLVIEDR”, the protease stability score worked out at 0.798.

The sequence “SEEEEMARRFTDRLLHFTQTGDERLVHEFVDPNARDDVNGREFHGWRSIHDIMRRLGIDHIRIRHIEVQGDKVRSHWQYVFNGVILEVEINTEKVDGRWLIKSVTFK” yielded a protease stability score of 1.14.

Turning to “DEMTHEIKRFLKEILRSSRTGDEHTDKHLMDPNVKIHYGEFHFHGREQAANFLSELRIHHVHIRDVDVQGDKATIDTEMDVEYNGQRYIFDVTLIMQKIDGRWLIKKVRYE”, the protease stability score was 1.3.

“DDKDEILLKLAKIVFENELTGDEESLEHLFDPNTRRIVNGKELVGWELISKYWKEQKKEMRVELRLRRHDIQGDKTRVRGEEILEIGEFKLILDVEITIVVINGRFTRIEIRVK”: the protease stability score was 0.185.

Sequence “DEHEEKIHFILHILQEAWRTGDESQLENLLDPNVRIIIGDKKTHGREAVINLFNHWRVENIRVHLRDVRVQGDKIHLETEIQVDGNVNGKTDRIEFETEFIIRKVDGRWLIEVIRMH” showed a protease stability score of 2.17.

As for “DDEEHASRNAYRILKRVVETGDWREFRKMMDPDARVLINGVQLHGREAVHHLLERVDHLHDIELRHIHTQGNKIHIEISVDGLIDGQKTETERRILVTKFNGRWKVEQIEIG”, the protease stability score stood at 0.628.

“SEEERDVRHVFEVFERSMNTGDEKKIEDRLDPNVRIIIGDKRVHGMHWVSKVIVEMRTHFILRRIRIIGDKADIDGELELRAEGHHIHTHVIIVVHKINGRWYIEEIEIR” gave a protease stability score of 1.69.

In turn, “DEDENLMRQFWETWEEALKTGDEHILHNLMDPNYRFIIGDKEHHGREAAEEFIRRVDHVTDIKFHRYRRIGDKIQIDGHLDGEINGKRNRYRSDIFVLKIDGRWFIHSVQIK” registered a protease stability score of 2.31.

The sequence “SEDDESLKRHIDLLLRVLETGNEEDLFRMIDPDAKMDWNGVDNHGMELIHKVWHELGLSNVRSHTEDFRVVGDKAEIHIRVEFNGRHHRVEIHTLKINGRWRVRRFHIR” had a protease stability score of 2.4.

Regarding “TEEKHMVLKIMEQVLQKWVTGDEDVLDHLLDPDDRLHLLQGDKFVEYHGWEEANKAWNEMRITHIELHDIRAQGDKVTSDGTLDGHFNGRRTRVRVRVHLIIVNGRLKEVELQLH”, the protease stability score turned out to be 0.924.

For “SEQEEYLKEYAKHFYEFLLTGDEDWLKRLFDPEARLTVEVGDKTEHLHGREEVSKFWKHLLTEMRIEMTLKDLDSQGEFIVSVTELNINIDGKTIHTRMEIILVVVNGRLREVELRIK”, the protease stability score came to 2.3.

Turning to “DEEHHELHKMFEEMINKWITGDWEYIVKLLDPHVKLEVGDKRHHGWKQYVLFLEEFMREFKNATIKIHDVTHVDGVVIINMKFHFNGKDIDTTLYLHIVNGRLHDERIEVE”, the protease stability score is 1.74.

In the case of “SEEEEMNEELIKIVLHSWKTGDEKHLEENFDPNVKLIVGDKRFIGREHLVKLIDHLIKRYPGLTIHLHDVKIQGNYVHLDTRAHFDGQTYNTRSHARKVDGRWYLTHSHIE”, the protease stability score stood at 0.125.

“KEEEEFAKHILHMLRYLWETGDEEEFERMADPNARLIQGDKHFHGREEITKSVKELRVRHFEEKHIHYQGEKSLIIGHVDGEINGQRHEIDVIIRLEVVNGKLKRIRIEYR” showed a protease stability score of 0.239.

“DEKEEILVDLFKHFLEAMLTGDEEQVNRLVDPNARHDIDGVEHHGWEFLEWFLSRVDHIELLEVKRVRNIDGRIEADLHIDITVNGKKERHDVEVHIVIIDGVFHSIKVIKH” registered a protease stability score of 2.23.

Regarding “DEEKRHSDEIIEEWVRSLITGDEKRIRELHDPTTLLNNENEKYHGMEIATELRRRIRENMGIKHSEVRVHDIEWQGDKITIYGRLILRFNGKEVEHELLIVATKINGRWVLRSMRIE”, the protease stability score was 1.48.

Consider “SEEEDTADEAIKLWLKLFITGDERTLARMMDPNTLNVVGDKEFHGWQFIIELVHKLFEEIRIHELTVEHLHVQGDKVRIDIRIDSRQGDKRHETKVEVILRKVNGRWTVEVIEIH”, for which the protease stability score is 2.39.

Sequence “DEDKKRSEEISKTMIEAMETGDEDRLHELLDPHVRMEIRIGDKHIIDHGREMMLHWSRRYPNLQFRLSHIDVQGDKIHAHWLVHIGDKTRDVELELQVVDGQIHSIHLRIR” displayed a protease stability score of 1.52.

Regarding “SEDEEYLKRALELWDELVKTGDEHRSRRLFDPNARLEIGDKEYHGREEVTHMLRWLIKEIRVHSVTLKDFRSQGDKLIADTRQNREYNGKSDNVSLIMIIIKVDGRWLIESIKIE”, the protease stability score was found to be 1.41.

In turn, “DEEHEEVERMWERFIKYYLTGNEELFDHLADPNVRLIIGDKIAIGREEVRKLWERRRREIRIRHMNFHSVRWYDGRIDLEVEVNLDVNGREIKTEQRIHIKVINGRVKDVEIRVE” came in with a protease stability score of 0.743.

As for “DEEEQSERIALELLDKSINTGDERVWKEMFDPRVIMDINGVKLIGREDYRRWRERFDHEENRDFKIHHHEVQGNKVHLDVEIDLTLNFDGKRHRHIFRTEVDVIKFDGKWHIRSLIVK”, the protease stability score was found to be 1.18.

For “TEEVHRYKNMLELFDHAVRTGNEDLLKILFDPNTRIEVGEYHNHGWEAIEFFLKRVDHEHIEDSKLTSHHVQGNYLESHGHMHATLHFNGKELRIHTHVRWHLDKFNGRWVIHSIIIN”, the protease stability score is 1.33.

In turn, “DESERDFRRALEIMHKVVETGNWEEAKRMFDPHVLLDVNGVLIHGREVIIKYVERIDHIRFHHDLKRIETQGDKIYADVHEDLDISINGKTIHIRTRVHIISQKYDGRWLNTEHKVE” showed a protease stability score of 0.548.

The sequence “TELEELMIKIIRLILRSHNTGDEDEQRKLLDPHVRWHIGDKEIHGRDLIIEHLKEVYERIDHIEFRENHVDIQGEKLHLDGRLIFIQGDKNIEFRVHYHFLIIDGVVDLIEVQIR” yielded a protease stability score of 1.5.

“DEEKEISKKATEILISILRTGDEDVMREYLDPHVRIDFNGKQLHGMDYLWRLLKHMRLRSLDVHSFHFVDGVIEVDSRSDGEVNGQRTDYHFHFIIEKVNGKWWLHKVKFE” displayed a protease stability score of 1.64.

“DEDRESMLEHFRLLVEQTKTGNEESTEENIDPHVRLIFNGQEYHGRHEVARYLVEIWRRVDHVRIHLTHMEVYDGVMEIHGQYHLDFDGRHVTHEFRIIFTKVDGRWRIHELRVQ” displayed a protease stability score of 1.38.

In turn, “SEDDEIKKHVAERWLKRLETGDEKTLSKLLDPDVRLHINGRTLHGREEVVHELHKWYYELGVDHVILRHIDHVNGQLRLHNEIRFENRHTSEILVITKVDGQWIVKYIEIRDH” came in with a protease stability score of 1.53.

The sequence “DEEEHSLRLALKILIHTRRTGDEHLLTEMADPNTRLDVNGVEVHGMEIFSKLTHEVVKRADHVEVHVKHIDIYGDKIRVHSEINYRQGDKEHSEKVHLVIKKFNGRWILHFVHIG” returned a protease stability score of 1.48.

Consider “DDWHEILKHHFDNEVESILTGDEDSIKKMIDPHVRLEVNGREVHGMEEFARVMIEIRFRRIDLRERDIFNGVLHLRLEVDWEYGDKRFETEEEVVYFKVNGRWILESMRVR”, for which the protease stability score turned out to be 1.26.

For “DEEEESSHNALKYWMHSLITGDEHTIERLADPHVLMVVNGKTFHGMERFHEALHEFNERIDHIERIEIKDMKIFDGRVIVELKVHGRIGDKRHELETYLVILKYDGKWHLHSISVK”, the protease stability score is 0.964.

The sequence “DEDHEQSHEMLELFVHSWKTGDWEILIKLLDPHARSIVNGREVHGREEISRYFKEELKKIPNMRIEVKIRSVEIQGDKVDNDVEIIIKYGDKLIRRKVHLLDLKVDGRWFLTDVTIE” registered a protease stability score of 1.96.

The sequence “DEDEELTRQIIEHIERNIETGDERRYRELVDPNARVDYNGVDKHGMHAILEVWNHIQHEFRGATIEHSRVRDWRFQGDKVILNFEHYFRIGDKNWRLDTRIIVDKVDGRWVIREVQIR” came in with a protease stability score of 1.47.

Consider “DEEEELAHKATEHWLHLVRTGDEEKISSQADPNTKVEIRQGDKRIDSHGMEHFSELLRKLIEDYGVNHIHVNIVRLIDGRVHVNSLVHVGDKEIKIHIWADKVNGRWIHRNMHVHVG”, for which the protease stability score came out at 0.547.

Sequence “NELEDRFDYAMKLWIDILRTGDEHQFEEMADPNVRIIDGDKHNVGREILYFLLWKFGFDNFEFRLHDFKIQGEKIHIDGHFRVDGQTHRVHFVVLKIDGRWLVESVERK” had a protease stability score of 2.01.

“DERREIMEEWARDVIEWLETGDFEAIERNLDPNVRHDFNGKEFHGREQVIKSFHDILKRIKNIRIETRHIEVVDGVTHWDGDVNVNGVRTHVDINIEVINGVFHDFYIKFK” had a protease stability score of 1.19.

“TDDEREAVRFSEEVMHSFITGDEEHLDRLMDPNTKLTVNGKEIHGRQDVLEFIKRYRRELGVKYSEFVVHSVDDFDGRLRNNTELNINVDGKHIRLDTRVDMIKFNGRWQLHSIRFD” had a protease stability score of 1.44.

For “DHVEKEARKFEKLLRHAETTGDEELYLKMIDPNVRIIIGEKNLVGREEVEKWLQTLGVSKVEIRHVEEKDIEIDEDHIRIHGRIIGRYNGKERDFEKHIIVQKIDGKWVLHTEEIR”, the protease stability score was found to be 0.385.

As to “SEIDKESEEVARRLLHMEYTGDEEKMIKLLDPHVRLDINGQLFVGREEAERALRQYWHRVDHIHSIEIHDYKTQGDWFHLDIRVDGEIDGQRRDFRVIVHTRIVNGKVKEMHLKFH”, the protease stability score turned out to be 1.65.

In the case of “DEEEKLVEEALREFLRDLMTGDEDSLLRQIDPNARHVYNGQEFHGRKWFEEMHKRMGMELKRIEIKDSDIVNGRAISHVEVHSRIGDKRLRIETEIVTLKVNGQWLVKSLSLI”, the protease stability score was found to be 1.15.

For the origin of these results see the NTF2 design screens of Basanta et al. (2020).
